Experimental data reported in IntAct's records for PubMed 22460785.

Key:
myh9_human MYH9 [1] = target: myh9_human MYH9 (UniProt P35579)
myh9_human MYH9 [2] = target: myh9_human MYH9 (UniProt P35579); remark: listed apart in the source

myh9_human MYH9, sequence (P35579 whole entry): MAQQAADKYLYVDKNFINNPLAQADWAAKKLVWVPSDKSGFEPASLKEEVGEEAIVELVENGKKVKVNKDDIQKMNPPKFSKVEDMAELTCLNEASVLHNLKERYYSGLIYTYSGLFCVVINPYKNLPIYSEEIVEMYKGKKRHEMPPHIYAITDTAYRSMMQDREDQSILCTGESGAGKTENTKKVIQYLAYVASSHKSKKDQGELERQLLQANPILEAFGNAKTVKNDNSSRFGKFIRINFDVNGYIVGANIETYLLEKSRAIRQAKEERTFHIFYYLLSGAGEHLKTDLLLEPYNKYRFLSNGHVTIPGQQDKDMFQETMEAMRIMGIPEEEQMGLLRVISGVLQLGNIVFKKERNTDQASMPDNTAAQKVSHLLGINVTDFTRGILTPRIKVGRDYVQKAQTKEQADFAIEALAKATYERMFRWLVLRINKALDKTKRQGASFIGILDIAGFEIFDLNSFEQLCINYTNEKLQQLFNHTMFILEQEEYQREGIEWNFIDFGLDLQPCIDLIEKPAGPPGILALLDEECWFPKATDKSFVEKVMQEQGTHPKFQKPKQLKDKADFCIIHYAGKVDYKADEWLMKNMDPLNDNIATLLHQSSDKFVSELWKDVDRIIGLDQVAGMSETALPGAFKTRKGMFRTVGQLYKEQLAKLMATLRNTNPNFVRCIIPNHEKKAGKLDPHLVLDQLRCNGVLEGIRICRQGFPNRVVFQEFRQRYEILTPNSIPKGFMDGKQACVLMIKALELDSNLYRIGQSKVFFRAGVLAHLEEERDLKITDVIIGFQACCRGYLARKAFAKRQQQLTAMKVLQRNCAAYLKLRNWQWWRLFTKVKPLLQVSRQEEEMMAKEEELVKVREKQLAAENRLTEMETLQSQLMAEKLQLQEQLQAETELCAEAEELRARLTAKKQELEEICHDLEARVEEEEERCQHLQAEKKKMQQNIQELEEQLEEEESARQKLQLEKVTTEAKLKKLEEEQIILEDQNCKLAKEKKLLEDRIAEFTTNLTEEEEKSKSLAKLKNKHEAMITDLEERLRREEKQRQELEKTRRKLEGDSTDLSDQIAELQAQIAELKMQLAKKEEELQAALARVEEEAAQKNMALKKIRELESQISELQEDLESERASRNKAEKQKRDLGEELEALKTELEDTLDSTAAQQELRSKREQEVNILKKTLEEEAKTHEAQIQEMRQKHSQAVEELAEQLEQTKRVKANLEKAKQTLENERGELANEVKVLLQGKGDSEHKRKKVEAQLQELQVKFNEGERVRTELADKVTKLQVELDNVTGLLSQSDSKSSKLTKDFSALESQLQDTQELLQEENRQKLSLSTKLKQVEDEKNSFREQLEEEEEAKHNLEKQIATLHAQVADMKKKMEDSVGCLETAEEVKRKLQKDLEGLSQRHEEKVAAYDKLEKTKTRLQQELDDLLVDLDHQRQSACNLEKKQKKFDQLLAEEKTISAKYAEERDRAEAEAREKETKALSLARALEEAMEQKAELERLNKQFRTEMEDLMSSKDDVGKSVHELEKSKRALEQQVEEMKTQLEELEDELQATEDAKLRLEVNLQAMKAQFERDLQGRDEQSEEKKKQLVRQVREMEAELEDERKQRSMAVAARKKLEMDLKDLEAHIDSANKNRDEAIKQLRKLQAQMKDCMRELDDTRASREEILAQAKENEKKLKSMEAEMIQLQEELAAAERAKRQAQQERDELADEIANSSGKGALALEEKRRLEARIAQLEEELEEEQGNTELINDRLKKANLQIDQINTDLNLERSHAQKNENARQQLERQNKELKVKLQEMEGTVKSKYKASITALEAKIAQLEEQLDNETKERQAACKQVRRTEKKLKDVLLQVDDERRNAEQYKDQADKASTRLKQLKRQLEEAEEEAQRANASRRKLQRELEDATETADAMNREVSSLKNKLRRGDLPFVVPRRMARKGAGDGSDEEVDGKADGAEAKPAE
Protein S100-A4 (Homo sapiens), P26447 C3S;F45W;C81S;C86S, sequence (P26447 whole entry C3S/F45W/C81S/C86S): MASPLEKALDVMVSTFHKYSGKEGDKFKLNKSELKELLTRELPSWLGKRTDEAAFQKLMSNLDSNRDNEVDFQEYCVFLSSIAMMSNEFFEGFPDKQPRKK

Row | effect of a mutation on the interaction (myh9_human MYH9 [1]) | effect of a mutation on the interaction (myh9_human MYH9 [2]) | Substance
1 | with no effect | – | Protein S100-A4 (Homo sapiens), P26447 F45W
2 | – | decreasing interaction strength | Protein S100-A4 (Homo sapiens), P26447 C3S;F45W;C81S;C86S
